Experimental data published in patent publication US20220033515A1 (Genentech, published 2022).
Changes are numbered by the printed parent chain.

T1: hVEGF109 (human, UniProt P15692 214-315)
T1 construct: range 8-109; also called VEGF (8-109)
T1 sequence (looked up): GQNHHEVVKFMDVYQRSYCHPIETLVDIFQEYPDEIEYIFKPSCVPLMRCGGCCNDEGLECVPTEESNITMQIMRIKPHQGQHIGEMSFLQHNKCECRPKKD

B1: clone 12 (scFv, V domains shown)
VH: not shown
VL: DIQMTQSPSSLSASVGDRVTITCRASQDIGGGSVAWYQQKPGKAPKLLIYWGSFLYSGVPSRFSGSGSGTDFTLTISSLQPEDFATYYCQQHYTTPPTFGQGTKVEIK
B2: clone 45 (scFv, V domains shown)
VH: not shown
VL: B1 VL with G30H, G31S, F54Y
B3: clone 27 (scFv, V domains shown)
VH: not shown
VL: DIQMTQSPSSLSASVGDRVTITCRASQYVYSTTVAWYQQKPGKAPKLLIYNGSSLYSGVPSRFSGSGSGTDFTLTISSLQPEDFATYYCQQASSAPPTFGQGTKVEIK
B4: 3-3 (scFv, V domains shown)
VH: not shown
VL: DIQMTQSPSSLSASVGDRVTITCRASQQIWRHLAWYQQKPGKAPKLLIYTGSSLYSGVPSRFSGSGSGTDFTLTISSLQPEDFATYYCQQSYWVAPPTFGQGTKVEIK
notes: also called c3-3
B5: H6 (scFv, V domains shown)
VH: not shown
VL: B4 VL with Q28Y, R31N, H32Y, L33V, T50G, Y92W, V94A, A95G
B6: 20.49 (Fab, V domains shown)
VH: not shown
VL: DIQMTQSPSSLSASVGDRVTITCRASVDLPKSVSGYVAWYQQKPGKAPKLLIYWGSFLYSGVPSRFSGSGSGTDFTLTISSLQPEDFATYYCQQHFTSPPTFGQGTKVEIKR
B7: 35.45 (Fab, V domains shown)
VH: not shown
VL: B6 VL with V27E, L29I, S32T, T97S
B8: 35.28 (Fab, V domains shown)
VH: not shown
VL: B6 VL with S26I, V27Q, D28N, L29I, P30A, S32T, V33I, S34T, T97N, T101K
B9: 20.52 (Fab, V domains shown)
VH: not shown
VL: B6 VL with S26I, V27E, D28N, S32T, V33I, T97S
B10: 35.61 (Fab, V domains shown)
VH: not shown
VL: B6 VL with S26I, V27E, D28N, V33I, S34T, F96Y, T97S, S98T, P99T, T101K
B11: 35.95 (Fab, V domains shown)
VH: not shown
VL: B6 VL with S26I, V27E, D28N, F96Y
B12: 35.74 (Fab, V domains shown)
VH: not shown
VL: B6 VL with S26I, V27Q, L29I, S32T, V33I, S34T, T97N, T101K
B13: 35.2 (Fab, V domains shown)
VH: not shown
VL: B6 VL with S26I, V27E, S32T, F96Y, T97S
B14: 20.93 (Fab, V domains shown)
VH: not shown
VL: B6 VL with S26V, V27E, S32T, V33I, S34T, S98T, T101K
B15: 35.87 (Fab, V domains shown)
VH: not shown
VL: B6 VL with V27Q, D28N, L29I, T97N
B16: 20.80 (Fab, V domains shown)
VH: not shown
VL: B6 VL with V27E, L29I, V33I, T97S
B17: 35.21 (Fab, V domains shown)
VH: not shown
VL: B6 VL with V27Q, V33I, T97S
B18: 35.56 (Fab, V domains shown)
VH: not shown
VL: B6 VL with S26V, V27Q, D28N, S32T, V33I, S34T, F96Y, S98I, T101K
B19: 35.25 (Fab, V domains shown)
VH: not shown
VL: B6 VL with S26I, V27Q, D28K, L29V, K31R, S32T, V33I, S34T, F96Y

Each binder was assayed against T1, hVEGF109 (assay: single-spot competitive phage ELISA).
For B1, the “% signal, SSC +/- 50 or 100nM VEGF” value was 81.3% and the OD450 without competitor was 2.23.
With B2 the “% signal, SSC +/- 50 or 100nM VEGF” value was 88.2% and the OD450 without competitor was 3.08.
With B3 the “% signal, SSC +/- 50 or 100nM VEGF” value was 95.7% and the OD450 without competitor was 2.82.

What follows are binders tested against T2, HER2 extracellular domain (Her2-ECD) (human, UniProt P04626 23-652) (assay: single-spot competitive phage ELISA).
T2 construct: extracellular domain; also called hHER2 extracellular domain (ECD)
For B4, the OD450 without competitor was 0.05.
Work on B5 yielded an OD450 without competitor of 0.05.
B1 was tested, and the OD450 without competitor was 0.04.
Binder B2 has an OD450 without competitor of 0.05.
In the case of B3, the OD450 without competitor is reported as 0.04.

The binders below were run against T2, HER2 extracellular domain (Her2-ECD) (assay: competition ELISA of phage-displayed Fab).
B6 showed an IC50 of 2.6 nM.
B7 showed an IC50 of 1.1 nM.
B8 was tested, and the IC50 was 0.6 nM.
Binder B9 has an IC50 of 3.1 nM.
With B10 the IC50 was 7.1 nM.
B11 gave an IC50 of 4.3 nM.
B12 showed an IC50 of 0.7 nM.
For B13, the IC50 was 3.5 nM.
Binder B14 has an IC50 of 3.8 nM.
B15 gave an IC50 of 2.2 nM.
Binder B16 has an IC50 of 2.2 nM.
In the case of B17, the IC50 is reported as 1.4 nM.
For B18, the IC50 was 1.7 nM.
B19 gave an IC50 of 0.4 nM.
